Results reported in patent US12329841B2, “Odorant-binding protein compositions, methods and uses thereof” (Universidade do Minho, priority 2020, dated 2025).
Each block holds one molecule with its values, some of them ahead of it.

Key:
[1] = cited from earlier work
[2] = Competitive fluorescence assay with sweat solution added to 1-AMA/protein complex; type: binding; settings: 37° C.; for Ka in sweat (affinity/association constant): sweat solution (AATCC 15-2009, pH 4.0-8.5), 1 μM protein + 2 μM 1-AMA, mean of 2 independent experiments
Protocol: (§1) In an embodiment, the pure odorant-binding protein was lyophilized and used in further procedures. To determine the affinity of the odorant-binding protein to odour molecules, 1-aminoanthracene (1-AMA) was used as an odour model molecule. Increased concentrations of fluorescent ligand model 1-aminoanthracene (1-AMA) were added to 1 μM of protein, and the formation of ligand/protein complex was quantified after 1 h at 37° C. by fluorescence emission at 481 nm (excitation at 295 nm).^30 Dissociation constant (Kd) was determined from a plot of fluorescence intensity versus concentration of ligand, obtained with a standard non-linear regression method, described in Malpeli et al. (1998).^31 The affinity behaviour of protein in presence of sweat solution was performed through a competitive fluorescence assay. Here, 1 μM of protein was mixed with 2 μM of 1-AMA and incubated at 37° C. for 1 h. After this period, increased volumes of sweat solution were added to the complex and incubated at same conditions.
In an embodiment, the sweat solution was prepared as indicated in AATCC method 15-2009 “Colorfastness to Perspiration”. The pH of the prepared solution varied between 4.0 and 8.5. In accordance with its composition, the sweat solution is also regarded as electrolyte solution.
(§2) In a further embodiment, fluorescence emission at 481 nm (excitation at 295 nm) was recorded and the dissociation constant (Kd) calculated. The association constant (Ka) was calculated by formula Kd=1/Ka.

[3] = 1-AMA fluorescence binding assay in buffer; settings: 50 mM Tris-HCl pH 7.5 buffer, 37° C., 1 μM protein, 1-AMA ligand, Ka from Kd=1/Ka, mean of 2 independent experiments
Protocol: as §1, §2

[4] = particularly in the presence of a ligand; cited from earlier work
[5] = Fragrance release quantified by headspace GC-MS after adding sweat solution; settings: for Odorific molecules released in response to human perspiration, compared with other fusion proteins based on porcine OBP: sweat pH 4.0-8.5
Protocol: In an embodiment, the release of fragrance was quantified by gas chromatography-mass spectrometry (GC-MS). Increased concentrations of fragrance were used in different vials and the fragrance in headspace quantified performing the calibration curve (area of peak vs fragrance concentration). The fragrance was incubated with the odorant-binding protein at 37° C. Sweat solution was added and the fragrance release determined after several periods of time (0.5-24 h) of perspiration exposition.

[6] = listed as Native porcine OBP (OBP-I)

Ka in buffer (affinity/association constant) [3]: 4.17 µM⁻¹
B1: OBP::GQ20::CBM: Recombinant pig OBP fused with spacer GQ20 and carbohydrate-binding module; comparative data, SEQ ID NO. 22 (protein)
chain: QEPQPEQDPFELSGKWITSYIGSSDLEKIGENAPFQVFMRSIEFDDKESKVYLNFFSKENGICEEFSLIGTKQEGNTYDVNYAGNNKFVVSYASETALIISNINVDEEGDKTIMTGLLGKGTDIEDQDLEKFKEVTRENGIPEENIVNIIERDDCPAGQGQGQGQGQGQGQGQGQGQGQGQGQGQGQGQGQGQGQGQASPIGEGTFDDGPEGWVAYGTDGPLDTSTGALCVAVPAGSAQYGVGVVLNGVAIEEGTTYTLRYTATASTDVTVRALVGQNGAPYGTVLDTSPALTSEPRQVTETFTASATYPATPAADDPEGQIAFQLGGFSADAWTLCLDDVALDSEVEL
modifications: OBP::GQ20::CBM (recombinant protein)
Release of fragrance in presence of sweat, value reported in state of art (ref. 25) [1]: 1.3 ×
Reduction of affinity on addition of sweat solution (Ka buffer vs Ka sweat) [2]: 1.3 ×
Ka in sweat (affinity/association constant) [2]: 3.16 µM⁻¹

Ka in buffer (affinity/association constant) [3]: 4 ± 0.03 µM⁻¹
Ka in buffer (affinity/association constant) ([3]; listed as Native OBP-I): 4 ± 0.03 µM⁻¹
Ka in buffer (affinity/association constant) [3, 6]: 4 ± 0.03 µM⁻¹
B2: OBP-I: Native porcine (pig) odorant-binding protein, PDB ID 1DZK, SEQ ID NO. 1 (protein, listed as Sus scrofa)
chain: QEPQPEQDPFELSGKWITSYIGSSDLEKIGENAPFQVFMRSIEFDDKESKVYLNFFSKENGICEEFSLIGTKQEGNTYDVNYAGNNKFVVSYASETALIISNINVDEEGDKTIMTGLLGKGTDIEDQDLEKFKEVTRENGIPEENIVNIIERDDCPA
modifications: Pig OBP (PDB ID 1DZK)
Structure stable to thermal denaturation up to (FT-IR) [4]: up to 80 °C
Reduction of affinity on addition of sweat solution (Ka buffer vs Ka sweat) [2]: 20 ×
Ka in sweat (affinity/association constant) [2]: 0.2 µM⁻¹
Ka in sweat (affinity/association constant) ([2]; listed as Native OBP-I): 0.2 ± 0.02 µM⁻¹
Ka in sweat (affinity/association constant) [2, 6]: 0.2 ± 0.02 µM⁻¹
Odorific molecules released in response to human perspiration, compared with other fusion proteins based on porcine OBP [5]: more than 20 ×

Ka in buffer (affinity/association constant) [3]: 4 µM⁻¹
B3: OBP::GQ20::KP: Recombinant pig OBP fused with linker GQ 20× and KP peptide, SEQ ID NO. 21 (protein)
chain: QEPQPEQDPFELSGKWITSYIGSSDLEKIGENAPFQVFMRSIEFDDKESKVYLNFFSKENGICEEFSLIGTKQEGNTYDVNYAGNNKFVVSYASETALIISNINVDEEGDKTIMTGLLGKGTDIEDQDLEKFKEVTRENGIPEENIVNIIERDDCPAGQGQGQGQGQGQGQGQGQGQGQGQGQGQGQGQGQGQGQGQGGVCGPSPPCITT
modifications: OBP::GQ20::KP (recombinant protein)
Reduction of affinity on addition of sweat solution (Ka buffer vs Ka sweat) [2]: 6.8 ×
Ka in sweat (affinity/association constant) [2]: 0.59 µM⁻¹
Odorific molecules released in response to human perspiration, compared with other fusion proteins based on porcine OBP [5]: > 6.8 ×
More fragrance release in presence of sweat versus presence of buffer ([5]; sweat versus buffer): 6.8 ×
